From US20230365705A1 (DYNAMICURE BIOTECHNOLOGY, published 2023) come the findings set out here.

The term Kd denotes the equilibrium constant for the complex coming apart. As a reminder, the kon is the rate constant with which the complex forms. Low readings indicate slower complex formation, high ones faster complex formation. The IC50 is the midpoint of a concentration-inhibition curve. High values mean weaker potency in that assay, low ones greater potency in that assay. For orientation: EC50 means the concentration needed to bring the measured effect to its halfway point.

Test [1] addresses T1, cynomolgus CD93 protein (made in-house) (cynomolgus, UniProt A0A2K5VH53 22-580).
T1 construct: Biotinylated in BLI; also called cyno CD93; cynoCD93
T1 sequence: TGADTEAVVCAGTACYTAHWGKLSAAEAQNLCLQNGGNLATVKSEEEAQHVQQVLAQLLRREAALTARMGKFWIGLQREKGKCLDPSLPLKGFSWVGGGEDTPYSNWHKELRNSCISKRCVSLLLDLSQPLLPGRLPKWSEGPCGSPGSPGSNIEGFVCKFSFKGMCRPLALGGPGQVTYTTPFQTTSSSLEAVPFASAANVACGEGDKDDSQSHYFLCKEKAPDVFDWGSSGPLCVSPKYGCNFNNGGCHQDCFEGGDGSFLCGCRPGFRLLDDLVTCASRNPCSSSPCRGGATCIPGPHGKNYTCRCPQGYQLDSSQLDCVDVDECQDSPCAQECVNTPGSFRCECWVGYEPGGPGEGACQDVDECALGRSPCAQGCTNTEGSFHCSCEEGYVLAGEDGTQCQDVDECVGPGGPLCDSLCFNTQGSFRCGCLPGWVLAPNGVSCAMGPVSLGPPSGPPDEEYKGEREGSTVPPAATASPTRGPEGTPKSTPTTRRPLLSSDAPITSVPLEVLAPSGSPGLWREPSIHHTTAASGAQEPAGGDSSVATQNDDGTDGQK
The test can be described thus: BLI (Octet QKe), biotinylated CD93 on streptavidin biosensors; table under the cynoCD93 panels. The method, then: The binding affinity of anti-CD93 antibodies were determined with bio-layer interferometry using Octet QKe (Fortebio). Human CD93 recombinant protein (Sino Biological Inc, Catalog #12589-H08H) or cynomolgus CD93 protein (made in-house) were biotinylated using EZ-LINK NHS-PEG4 biotin (Thermo Fisher Scientific). Streptavidin biosensors (Fortebio) were used to load biotinylated CD93 protein (300 seconds at 5 μg/ml). The baseline was stabilized for 60 seconds in a 1× kinetics buffer (Fortebio) before serially diluted anti-CD93 antibodies were allowed to associate for 300 seconds with captured protein. The sensors were dissociated in a 1× kinetics buffer for 600 seconds.
Background: BLI is a label-free optical method that tracks binding on a fibre tip over time.

Test [2] has as its target T2, Human CD93 on cells (human CD93 expressing CHO cells; HUVEC, U937 and KG1a cells) (human, UniProt Q9NPY3 22-652).
T2 construct: whole, on cells; also called hCD93 expressing CHO cells; hCD93 CHO cells
T2 sequence (looked up): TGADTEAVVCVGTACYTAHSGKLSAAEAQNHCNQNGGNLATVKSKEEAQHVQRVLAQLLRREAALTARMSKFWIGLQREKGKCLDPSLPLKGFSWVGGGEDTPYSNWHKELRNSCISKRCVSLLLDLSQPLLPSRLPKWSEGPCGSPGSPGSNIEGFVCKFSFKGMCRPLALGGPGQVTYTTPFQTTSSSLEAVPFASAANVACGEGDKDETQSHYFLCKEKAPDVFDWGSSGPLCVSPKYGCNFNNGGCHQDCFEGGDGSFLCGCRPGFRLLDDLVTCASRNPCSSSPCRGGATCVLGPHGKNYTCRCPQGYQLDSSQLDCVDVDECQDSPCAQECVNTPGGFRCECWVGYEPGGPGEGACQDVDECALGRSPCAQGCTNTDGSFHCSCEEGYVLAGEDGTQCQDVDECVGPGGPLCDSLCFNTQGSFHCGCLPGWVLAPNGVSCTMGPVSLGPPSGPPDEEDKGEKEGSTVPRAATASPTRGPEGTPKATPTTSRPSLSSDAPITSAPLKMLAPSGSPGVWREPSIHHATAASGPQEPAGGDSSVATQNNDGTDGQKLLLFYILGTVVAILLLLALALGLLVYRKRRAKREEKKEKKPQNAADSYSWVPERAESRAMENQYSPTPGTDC
The test can be described thus: flow cytometry blocking assay, CHO-hCD93 cells; blocked ligand hMMRN2 495-674 at 0.1 ug/ml; blocking activity is 0 up to about 10 ug/ml and appears only at the two highest points. As to the method:
Then the cells were incubated with hMMRN2₄₉₅₋₆₇₄ at 0.1 μg/ml. […] Then the cells were washed with FACS buffer and incubated with APC-conjugated anti-His tag antibody at 1 μg/ml for 30 minutes at 4° C. After washing with FACS buffer twice, the samples were analyzed and data acquired in NovoCyte Flow. Recombinant his tagged […] was produced internally in Expi_HEK following routine procedure.
(In general: A flow cytometer gives signals particle by particle.)

Test [3] addresses T2, Human CD93 on cells (human CD93 …). The test can be described thus: flow cytometry titration, CHO-hCD93 cells; antibody stored 2 weeks at 40 C. As to the method: Human CD93 expressing CHO cells were detached by incubation with TrypLE reagents (Thermo Fisher), which preserves the integrity of CD93 on the cell surface. Then the cells were incubated with serial diluted anti-CD93 antibodies for 30 minutes at 4° C. After washing by FACS buffer, the cells were incubated with Alexa Fluor 647 conjugated anti-human IgG (Jackson ImmunoResearch) for 30 minutes in 4° C. After washing by FACS buffer twice, the samples were acquired in NovoCyte Flow Cytometer and analyzed by NovoExpress software.

Test [4] shares this target. The test can be described thus: flow cytometry titration, HUVEC cells; antibody stored 2 weeks at 40 C. The method, then: (§1) HUVEC cells were detached by incubation with TrypLE reagents (Thermo Fisher), which preserves the integrity of CD93 on the cell surface. Then the cells were incubated with serial diluted anti-CD93 antibodies for 30 minutes at 4° C. After washing by FACS buffer, the cells were incubated with Alexa Fluor 647 conjugated anti-human IgG (Jackson ImmunoResearch) for 30 minutes in 4° C. After washing by FACS buffer twice, the samples were acquired in NovoCyte Flow Cytometer and analyzed by NovoExpress software.

Test [5] shares this target. The test can be described thus: flow cytometry blocking assay, CHO-hCD93 cells; blocked ligand hMMRN2 495-674 at 0.1 ug/ml; antibody stored 4 weeks at 40 C. The method, then: Then the cells were incubated with hMMRN2₄₉₅₋₆₇₄ at 0.1 μg/ml. […] After washing with FACS buffer twice, the samples were analyzed, and data acquired in NovoCyte Flow. Recombinant his tagged hMMRN2₄₉₅₋₆₇₄ was produced internally in E. Coli following routine procedure.

Test [6] shares this target. The test can be described thus: summary table, column FACS (HUVEC cells); 2 weeks at 40 C. As to the method:
as §1

B1: 16E4 (hybridoma) (antibody, IgG2a, V domains shown)
VH: QVQLQQPGAELVKPGASVKLSCKASGYTFTSYWMHWVKQRPGQGLEWIGEIDPSASYTYYNQKFKGKATLTVDKSSSTAYMQLSSLTSEDSAVYYCARSVYYGNKYFDVWGAGTTVTVSS
VL: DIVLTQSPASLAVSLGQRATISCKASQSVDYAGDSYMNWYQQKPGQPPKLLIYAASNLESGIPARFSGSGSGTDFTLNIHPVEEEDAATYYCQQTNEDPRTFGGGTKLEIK
notes: also called 16E4 mAb; 16E4 mIgG2a
In test [1], B1 yielded a Kd of 0.446 nM and a kon of 663000 M⁻¹ s⁻¹.

B2: h16E4 (humanized 16E4, VH4+VL6) (antibody, V domains shown)
VH: QVQLVQSGAEVKKPGASVKVSCKASGYTFTSYWMHWVRQAPGQGLEWMGEIDPSASYTYYNQKFKGRVTMTRDKSSSTVYMELSSLTSEDSAVYYCARSVYYGNKYFDVWGAGTTVTVSS
VL: DIQMTQSPSTLSASVGDRVTITCKASQSVDYAGDSYMNWYQQKPGKAPKLLIYAASNLESGVPSRFSGSGSGTEFTLTISSLQPDDFATYYCQQTNEDPRTFGGGTKLEIK
notes: Detected with anti-human IgG, so a human Fc
In turn, B2 registered an IC50 in test [2] of 225 nM. The EC50 in test [3] stood at 0.274 nM.

B3: h7F3 (humanized 7F3, VH3+VL3) (antibody, human IgG1, V domains shown)
VH: QVQLVQSGAEVKKPGASVKVSCKASGYTFTDYEMHWVRQAPGQGLEWMGGIDPETGDTAYNQNFKGRVTMTTDTSTSTAYMELRSLTSDDTAVYYCTNYGNLYYYAMDYWGQGTSVTVSS
VL: EIVLTQSPSSLSASVGDRVTITCRASSSVSSSYLHWYQQKPGKAPKLLIYSTSNLAFGVPSRFSGSGSGTSYTFTISSLQPEDIATYYCQQYSGYPLTFGSGTKLEIK
notes: also called humanized 7F3-hIgG1
Take B3: the EC50 in test [4] and in test [6] was 1.17 nM throughout. For the same molecule, the IC50 in test [5] is 0.153 nM.
